These results are taken from patent US20120172578A1 (VLAAMS INTERUNIVERSITAIR INSTITUUT VOOR BIOTECHNOLOGIE, published 2012).

Residue numbers refer to the chain shown, from its start. Numbers in names are those of the source. Where only a bound is given, the exact number is not on record here.

For test [1], the target named is T1, Carcino Embryonic Antigen (UniProt P06731 35-685, limits assumed).
T1 construct: also called CEA; CEA tumor antigen
T1 sequence (looked up): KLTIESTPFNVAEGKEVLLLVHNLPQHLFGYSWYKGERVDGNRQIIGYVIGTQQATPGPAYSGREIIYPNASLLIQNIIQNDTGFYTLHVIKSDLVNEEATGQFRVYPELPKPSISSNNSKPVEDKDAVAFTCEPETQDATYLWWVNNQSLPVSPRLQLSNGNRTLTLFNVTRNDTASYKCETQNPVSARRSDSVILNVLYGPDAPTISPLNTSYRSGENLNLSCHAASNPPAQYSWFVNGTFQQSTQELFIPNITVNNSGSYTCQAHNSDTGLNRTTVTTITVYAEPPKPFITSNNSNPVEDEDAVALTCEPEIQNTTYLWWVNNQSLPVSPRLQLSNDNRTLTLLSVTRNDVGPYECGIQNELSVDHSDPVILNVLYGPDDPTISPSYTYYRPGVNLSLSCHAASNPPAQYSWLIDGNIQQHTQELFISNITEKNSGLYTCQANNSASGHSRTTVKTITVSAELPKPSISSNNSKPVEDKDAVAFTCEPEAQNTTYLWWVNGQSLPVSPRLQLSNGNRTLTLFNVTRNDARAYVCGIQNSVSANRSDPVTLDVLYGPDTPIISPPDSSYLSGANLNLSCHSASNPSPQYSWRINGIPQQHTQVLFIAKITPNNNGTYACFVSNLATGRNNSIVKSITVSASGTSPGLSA
The test is described as follows: column 'Antigen recognized by antibody'.

For test [2], the target named is T2, Prostate Specific Antigen (UniProt P07288 25-261).
T2 construct: also called PSA
The experiment in a line: column 'Antigen recognized by antibody'.

Test [3] deals with T2, Prostate Specific Antigen. The experiment in a line: BIAcore. For orientation: Surface plasmon resonance follows binding to a sensor surface in real time, without labels.
The target of test [4] is T1, Carcino Embryonic Antigen. The experiment in a line: ELISA on coated CEA. Background: An ELISA detects its analyte on a solid surface through an enzyme-linked reagent.
Method: A microtiter plate (Maxisorp, NUNC) was coated overnight at 4° C. with CEA (Scripps) at a concentration of 1 μg/ml (in PBS), and blocked for two hours at room temperature (RT) with 300 μl 1% casein in PBS. The plates were washed three times with PBS-tween. […] Plates were washed six times with PBS-tween, after which binding of VHH was detected by incubation with mouse anti-Histidine mAB (Serotec; 1:1000 diluted; 100 μl/well) for 1 hour at RT followed by anti-mouse-alkaline phosphatase conjugate (Sigma, 1:2000 diluted), also for 1 hour at RT. Staining was performed with the substrate PNPP (p-nitrophenyl-phosphate, 2 mg/ml in 1M diethanolamine, 1 mM Mg₂SO₄, pH9.8) and the signals were measured after 30 minutes at 405 nm.
Test [5] has as its target humanized mouse mAb to CD40. The experiment in a line: BIAcore.
The target of test [6] is T3, TEM1 (UniProt P62593 24-286).
T3 construct: also called β-lactamase; b-lactamase
The experiment in a line: column 'Antigen recognized by antibody'.

Test [7] concerns the target T3, TEM1. The experiment in a line: IMAC co-purification, Coomassie stained PAGE.
The next test deals with β-lactamase. The experiment in a line: BIAcore.
Another test addresses T4, human serum albumin (human, UniProt P02768 25-609).
T4 construct: also called HSA
The test is described as follows: column 'Antigen recognized by antibody'.

T2 sequence (P07288 25-261 limits assumed): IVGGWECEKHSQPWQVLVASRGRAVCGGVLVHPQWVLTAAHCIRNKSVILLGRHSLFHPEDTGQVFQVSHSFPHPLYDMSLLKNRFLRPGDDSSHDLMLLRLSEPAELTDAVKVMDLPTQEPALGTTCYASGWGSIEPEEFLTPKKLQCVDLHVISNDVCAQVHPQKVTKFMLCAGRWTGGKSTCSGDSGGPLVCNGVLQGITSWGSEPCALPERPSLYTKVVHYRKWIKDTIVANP
T4 sequence (P02768 25-609 limits assumed): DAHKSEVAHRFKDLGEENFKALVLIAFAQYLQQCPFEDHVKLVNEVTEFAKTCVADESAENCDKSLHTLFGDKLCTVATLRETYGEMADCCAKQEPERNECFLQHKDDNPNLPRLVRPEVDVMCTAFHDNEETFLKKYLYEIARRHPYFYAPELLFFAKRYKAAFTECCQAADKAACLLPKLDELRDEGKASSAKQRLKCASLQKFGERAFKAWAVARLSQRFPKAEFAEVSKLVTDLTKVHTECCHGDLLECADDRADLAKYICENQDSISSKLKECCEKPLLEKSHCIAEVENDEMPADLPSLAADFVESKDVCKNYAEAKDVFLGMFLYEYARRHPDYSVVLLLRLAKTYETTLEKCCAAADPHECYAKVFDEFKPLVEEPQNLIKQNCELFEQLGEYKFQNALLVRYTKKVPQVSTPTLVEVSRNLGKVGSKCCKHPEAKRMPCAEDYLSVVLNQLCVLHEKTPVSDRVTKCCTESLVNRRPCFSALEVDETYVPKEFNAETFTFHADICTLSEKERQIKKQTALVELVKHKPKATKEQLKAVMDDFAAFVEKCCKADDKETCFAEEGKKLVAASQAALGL
T3 sequence (P62593 24-286 limits assumed): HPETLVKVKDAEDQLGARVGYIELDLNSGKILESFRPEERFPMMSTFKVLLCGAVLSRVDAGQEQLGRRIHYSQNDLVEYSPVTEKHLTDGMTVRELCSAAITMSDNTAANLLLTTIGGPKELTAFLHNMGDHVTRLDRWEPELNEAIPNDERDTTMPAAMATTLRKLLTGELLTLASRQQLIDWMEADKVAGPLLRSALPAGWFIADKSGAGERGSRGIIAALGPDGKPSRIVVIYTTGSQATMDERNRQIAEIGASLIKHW

B1: CEA1 (VHH)
VHH: QVQLVESGGGLVQPGGSLRLSCAASGFTFSKYDMSWVRQAPGKGLEWVSRISSGGGSTYYADSVKGRFTISRDNAKNTLYLQMNSLKPEDTAVYYCATPTYSSDYRGLPPGQGTQVTVSS
notes: Dromedary single domain; purified on Ni-NTA
On to B1, for which the binding result in test [1] was “binds”.

B2: N3-A (VHH)
VHH: DVQLQESGGSLVQPGGSLRLSCAASGFTFSAYYMIWVRQAPGKGLEWVSGISANGRDTLYEDSVEGRFAISRDNAKNTLYLQMNSLRSEDTALYYCVIGALITGRRGQGTQVTVSS
notes: as for B1
Consider B2, for which, in test [2], the binding result is “binds”.

B3: C11-B (VHH)
VHH: B2 VHH with S10G, T28I, A31N, Y32T, I35T, N54D, E61A, I98T, I102M
notes: as for B1
By Kd is commonly meant a measure of binding affinity in units of concentration. With B3, in test [3], the affinity, expressed as Kd, was 2.6 nM.

B4: anti-carcinoembryonic antigen VHH CEA71 (wild type) (VHH)
VHH: QVQLVESGGGLVQPGGSLRLSCAASGFTFSSSYMSWVRQAPGKGLEWVSGINTDGSFTRYADSVKGRFTISRDNAKNTLYLQMNSLKSEDTALYYCAVGGGLGYGPRGQGTLVTVSS
notes: also called CEA71 WT; CEA wild type VHH
On to B4, for which the “fold lower concentration at which it binds, against the R103W mutant” value in [4] is around 10 fold.

B5: CEA72 (VHH)
VHH: B4 VHH with G26E, L112Q
notes: as for B1
In the case of B5, in test [1], the binding result is recorded as “binds”.

B6: CD40-1 (VHH)
VHH: QVQLVESGGGLVQPGGSLRLSCAASGFAFSRYSMYWVRQAPGKGLEWVSEIYPDGNGWYTSSVKGRFTISRDNDKNMLYLQMNSLKPDDTAVYYCALSRSGQGRGQGTRVTVSS
In test [5], B6 came in with a Kd of 2 nM. That is a single-digit nanomolar value.

B7: N15-B (VHH)
VHH: DVQLQESGGGSVQAGGSLRLACAATAYTYDSNVLGWFRQAPGKEHEGVAVIYTGTRTTYYADSVKGRFTISQDNAKNTVYLQMNSLKPGDTAMYFCAANVRLGGVWSFDYRGQGTQVTVSS
notes: as for B1
For the molecule B7, the binding result in [2] is recorded as “binds”.

B8: N8-B (VHH)
VHH: DVQLQESGGGLVQPGGSLRLSCAASGFLFSDTYMTWARQAPGKGLEWLGGISKDGSGTLYEDSVEGRFTISRDNAKNTLYLQMNSLKSEDTALYYCSTGALLPTRPQGQGTQVTVSS
notes: as for B1
Regarding B8, the Kd in test [3] worked out at 1.6 nM.

B9: C12-A (VHH)
VHH: B8 VHH with Q13R, D31G, G49C, S52N, E61A, I70C
notes: as for B1
Regarding B9, binding in test [3] was put at a Kd of 2.6 nM.

B10: anti-β-lactamase VHH TEM04 (wild type) (VHH)
VHH: QVQLVESGGGLVQAGGSLRLSCAASGFTFSSAWMTWVRQAPGKGLEWVTSIATDGSTDYADSVKGRFTISRDNAKNTLYLQLNSLNTEDTAVYYCAKDRWGYVVRGQGTQVTVSS
notes: also called cAbTEM04
With B10, the binding result in the test with TEM1 [6] is “binds”.

B11: anti-β-lactamase VHH TEM04 R103W mutant (VHH)
VHH: B10 VHH with R105W
notes: also called VHH TEM04 mutant; TEM04 W (mutant)
Take B11: the binding result with TEM1 [7] is “binds”.

B12: C9-B (VHH)
VHH: DVQLQESGGGLVQPGGSLRLSCAASGFTFSNHYMTWVRQAPGKGLEWVSVISNDGRYTDYADSVKGRFTISRDNAKNTLYLQMNSLKTEDTALYTCVRGYYLTNLPAGDRGQGTQVTVSS
notes: as for B1
Consider B12, for which the Kd in [3] was found to be 3.9 nM.

B13: C24-A (VHH)
VHH: B12 VHH with T28A, S30T, N31P, H32S, T35S
notes: as for B1
As to B13, the binding result in test [2] is “binds”.

B14: cAbBLA01 (VHH)
VHH: QLQLVESGGGSVQSGGSLRLSCKVSGYIGSTNCMGWFRQAPGKEREGVASLFTGSGNTYYGDSVKGRFTISEDNAKNTVSLQMNSLKPEDTAMYYCASSSNVGSDESCGRKNTRQFVYTYQGQGTQVTVSS
As for B14, in the test with β-lactamase, the Kd was below 1 nM.

B15: N13-A (VHH)
VHH: DVQLQESGGGSVQPGGSLRLSCAASGFTFKDASMNWVRQAPGKGLEWVSAINGGGTVTDYADPMEGRFTISRDNAKNTLYLQMNSLNFEDTALYYCATGWLFRANNYRGQGTQVTVSS
notes: as for B1
In the case of B15, the binding result in [2] was “binds”.

B16: ALB-4 (VHH)
VHH: QVQLQESGGGLVQPGNSLRLSCAASGFSFRSFGMSWVRQAPGKGPEWVSSINSSGDDTRYTDSVKGRFTISRDNAKSTLYLQMNSLKPEDTAVYYCTIGSSISRSSQGTQVTVSS
notes: Llama single domain; purified on Ni-NTA
Turning to B16, the binding result in the test with human serum albumin is reported as “binds”.

B17: C1-B (VHH)
VHH: DVQLQESGGGLVQPGGSLRLSCAASGFTFSTSYMTWARQAPGKGLEWVSGINRDGNNPLYADSVEGRFTVSRDNAKNTLYLQMNSLKSEDTALYYCVAGALVAGARGQGTQVTVSS
notes: as for B1
In turn, B17 gave a Kd in [3] of 0.8 nM. That is a sub-nanomolar value.

B18: ALB-2 (VHH)
VHH: QVQLQESGGGLVQPGGSLRLTCTASGFAFSNFGMSWVRQPPGKGLEWVSAISADSSTKNYADSVKGRFTISRDNTKKMLYLEMNSLKPEDTAVYHCVIGRGSASSQGTQVTVSS
notes: as for B16
Regarding B18, in the test with human serum albumin, the binding result is “binds”.

B19: ALB-5 (VHH)
VHH: B18 VHH with N31S, T75D, S85K, A103P
notes: as for B16
With B19, the binding result with human serum albumin is listed as “binds”.

B20: ALB-3 (VHH)
VHH: QVQLQESGGGLVQPGNSLRLSCAASGFAFGNFGMSWVRQAPGKEPEWVSSIDSIGSDTLYADFVKGRFTISRDNAKSTLYLQMNSLKPEDTAVYYCTIGGSLSRSSQGTQVTVSS
notes: as for B16
B20: in the test with human serum albumin, the binding result was “binds”.

B21: ALB-1 (VHH)
VHH: QVQLQESGGGLVQPGGSLRLSCAASGFAFSSFPMTWVRQAPGKGLEWVSGILEGGGSPAYADSVKGRFTISRDDAKNTLYLQMNSLKPEDTAVYYCAKGYVYAREGARSQGTQVTVSS
notes: as for B16
Consider B21, for which, in the test with human serum albumin, the binding result is recorded as “binds”.
